Patent publication US20180142032A1 (Sanofi, published 2018)
Residue numbers refer to the chain shown, from its start.

B1: MAb2 (antibody, mouse IgG1, kappa)
heavy: QVQLQQSAAELARPGASVKMSCKASGYTFTSYTMHWVKQRPGQGLEWIGYFNPSSGYPEYNQKFKDKTTLTADKSSNTAFIQLNSLTSEDSAVYYCSRGYYYGSRGYALDFWGQGASVTVSSAKTTPPSVYPLAPGSAAQTNSMVTLGCLVKGYFPEPVTVTWNSGSLSSGVHTFPAVLQSDLYTLSSSVTVPSSTWPSETVTCNVAHPASSTKVDKKIVPRDCGCKPCICTVPEVSSVFIFPPKPKDVLTITLTPKVTCVVVDISKDDPEVQFSWFVDDVEVHTAQTQPREEQFNSTFRSVSELPIMHQDWLNGKEFKCRVNSAAFPAPIEKTISKTKGRPKAPQVYTIPPPKEQMAKDKVSLTCMITDFFPEDITVEWQWNGQPAENYKNTQPIMDTDGSYFVYSKLNVQKSNWEAGNTFTCSVLHEGLHNHHTEKSLSHSPGK
light: NIVLTQSPVSLAVSLGQRATISCRASESVDINGNTFMHWYQQKPGQSPKLVIYAASNIESGVPARFSGSGSSTDFTFTIDPVEADDVATYYCQQNIEDPWTFGGGTKVEIKRADAAPTVSIFPPSSEQLTSGGASVVCFLNNFYPKDINVKWKIDGSERQNGVLNSWTDQDSKDSTYSMSSTLTLTKDEYERHNSYTCEATHKTSTSPIVKSFNRNEC
notes: murine monoclonal IgG, kappa, from hybridoma; also called murine MAb2
B2: MAb1 (antibody, mouse IgG2a, kappa)
heavy: QVQLQQSGAELVKPGASVKMSCKASGYIFTNYNIHWVKKSPGQGLEWIGAIYPGNGDAPYSQKFKDKATLTADKSSSTTYMQLSRLTSEDSAVYYCVRANWDVAFAYWGQGTLVSVSAAKTTAPSVYPLAPVCGDTTGSSVTLGCLVKGYFPEPVTLTWNSGSLSSGVHTFPAVLQSDLYTLSSSVTVTSSTWPSQSITCNVAHPASSTKVDKKIEPRGPTIKPCPPCKCPAPNLLGGPSVFIFPPKIKDVLMISLSPIVTCVVVDVSEDDPDVQISWFVNNVEVHTAQTQTHREDYNSTLRVVSALPIQHQDWMSGKEFKCKVNNKDLPAPIERTISKPKGSVRAPQVYVLPPPEEEMTKKQVTLTCMVTDFMPEDIYVEWTNNGKTELNYKNTEPVLDSDGSYFMYSKLRVEKKNWVERNSYSCSVVHEGLHNHHTTKSFSRTPGK
light: DIQMTQSPPSLSASLGGKVTITCKASQDIDRYMAWYQDKPGKGPRLLIHDTSTLQPGIPSRFSGSGSGRDYSFSISNLEPEDIATYYCLQYDNLWTFGGGTKLEIKRADAAPTVSIFPPSSEQLTSGGASVVCFLNNFYPKDINVKWKIDGSERQNGVLNSWTDQDSKDSTYSMSSTLTLTKDEYERHNSYTCEATHKTSTSPIVKSFNRNEC
notes: murine monoclonal IgG, kappa, from hybridoma; also called murine MAb1
B3: huMAb1_1 (antibody, human IgG1, kappa)
heavy: not shown
light: DIQMTQSPSSLSASVGDRVTITCKASQDIDRYMAWYQDKPGKAPRLLIHDTSTLQSGVPSRFSGSGSGRDYTLTISNLEPEDFATYYCLQYDNLWTFGGGTKVEIKRTVAAPSVFIFPPSDEQLKSGTASVVCLLNNFYPREAKVQWKVDNALQSGNSQESVTEQDSKDSTYSLSSTLTLSKADYEKHKVYACEVTHQGLSSPVTKSFNRGEC
notes: humanized, VH1-huIgG1 and VL1-huCk
B4: MAb3 (antibody, V domains shown)
VH: QIQLVQSGPELKKPGETVKISCKASGYIFTNYGMNWVKQAPGKGLKWMGWINTYTGESRYADDFKGRFALSLETSASTAYLQINNLENEDMATYFCAREDYYGNSPWFFDVWGAGTTVTVSS
VL: DIQMTQTTSSLSASLGDRVTISCNASQGINKYLNWYQQKPDGTVKLLIYYTSTLHSGVPSRFSGSGSGTDYSLTINNLEPEDIATYYCQQYTKLPFTFGSGTKLEIK
notes: murine monoclonal IgG, kappa, from hybridoma; also called murine MAb3

Assays:
LAMP1_mseq5_ΔGYQTI = molecular target: T1, LAMP1_mseq5_ΔGYQTI (human; mouse); test: flow cytometry, transfected 293-F cells
T1 construct: on cells; also called pXL6017

LAMP1_mseq1_ΔGYQTI = molecular target: T2, LAMP1_mseq1_ΔGYQTI (mouse; human); test: flow cytometry, transfected 293-F cells
T2 construct: on cells; also called pXL6012

hLAMP1_ΔGYQTI = molecular target: T3, hLAMP1_ΔGYQTI (human, UniProt P11279 29-412); test: flow cytometry, transfected 293-F cells
T3 construct: also called pXL5626
T3 sequence: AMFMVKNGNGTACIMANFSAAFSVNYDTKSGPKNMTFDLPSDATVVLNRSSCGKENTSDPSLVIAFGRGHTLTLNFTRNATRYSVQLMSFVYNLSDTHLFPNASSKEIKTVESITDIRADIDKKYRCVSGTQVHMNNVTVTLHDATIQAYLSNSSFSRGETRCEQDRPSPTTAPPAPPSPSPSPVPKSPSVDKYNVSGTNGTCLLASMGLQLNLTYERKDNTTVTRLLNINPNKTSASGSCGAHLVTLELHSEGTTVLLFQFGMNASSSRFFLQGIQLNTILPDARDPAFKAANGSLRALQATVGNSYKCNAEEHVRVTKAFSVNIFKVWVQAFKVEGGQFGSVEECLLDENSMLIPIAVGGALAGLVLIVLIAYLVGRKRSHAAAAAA

LAMP1_mseq3_ΔGYQTI = molecular target: T4, LAMP1_mseq3_ΔGYQTI (human; mouse); test: flow cytometry, transfected 293-F cells
T4 construct: on cells; also called pXL6014

LAMP1_mseq2_ΔGYQTI = molecular target: T5, LAMP1_mseq2_ΔGYQTI (human; mouse); test: flow cytometry, transfected 293-F cells
T5 construct: on cells; also called pXL6013

[1] = molecular target: T6, recombinant human LAMP2 with a C-terminal 10 His-tag (human, UniProt P13473 29-375); test: ELISA on coated LAMP2
T6 construct: bought; also called soluble LAMP2 protein (R&D Systems 6228-LM)
Method: LAMP2 is the closest member of the LAMP family with 35% sequence identity to LAMP1. […] Anti-LAMP1 antibodies were added to the plates and detected by using rabbit anti-mouse IgG conjugated with horseradish peroxidase (Sigma; #A9044). Antibody binding was visualized by adding TMB-H₂O₂ buffer and read at a wavelength of 450 nm.

mLAMP1_hseq11_ΔGYQTI = molecular target: T7, mLAMP1_hseq11_ΔGYQTI (mouse; human, UniProt P11438 25-369); test: flow cytometry, transfected 293-F cells, experiment 1
T7 construct: on cells; numbering read as for pXL6041; also called pXL6048; not shown: murine transmembrane domain and cytoplasmic tail with GYQTI replaced by 5 Ala
T7 chain: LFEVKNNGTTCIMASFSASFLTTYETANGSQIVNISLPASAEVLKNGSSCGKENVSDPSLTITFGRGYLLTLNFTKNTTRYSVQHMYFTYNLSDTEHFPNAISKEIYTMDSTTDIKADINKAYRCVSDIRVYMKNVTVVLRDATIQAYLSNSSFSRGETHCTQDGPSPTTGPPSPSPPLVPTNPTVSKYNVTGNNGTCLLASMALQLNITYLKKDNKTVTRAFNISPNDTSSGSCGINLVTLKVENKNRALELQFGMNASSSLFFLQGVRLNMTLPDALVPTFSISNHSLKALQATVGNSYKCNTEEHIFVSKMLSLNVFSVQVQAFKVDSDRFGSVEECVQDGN

mLAMP1_ΔGYQTI = molecular target: T8, mLAMP1_ΔGYQTI (mouse, UniProt P11438 25-369); test: as above
T8 construct: on cells; also called pXL6009; murine LAMP1; not shown: murine transmembrane domain and cytoplasmic tail with GYQTI replaced by 5 Ala
T8 sequence: T7 chain with N151S, S152G, S153N, R156K, G157E

LAMP1::histag = molecular target: T9, LAMP1::histag (human, UniProt P11279 29-382); test: SPR (BIAcore 2000), mAb captured by anti-Fc, LAMP1 injected 1 to 256 nM
T9 construct: extracellular domain without signal peptide, C-terminal 6 His tag, made in HEK293 cells; also called recombinant human LAMP1; human LAMP1 (29-382)
T9 sequence: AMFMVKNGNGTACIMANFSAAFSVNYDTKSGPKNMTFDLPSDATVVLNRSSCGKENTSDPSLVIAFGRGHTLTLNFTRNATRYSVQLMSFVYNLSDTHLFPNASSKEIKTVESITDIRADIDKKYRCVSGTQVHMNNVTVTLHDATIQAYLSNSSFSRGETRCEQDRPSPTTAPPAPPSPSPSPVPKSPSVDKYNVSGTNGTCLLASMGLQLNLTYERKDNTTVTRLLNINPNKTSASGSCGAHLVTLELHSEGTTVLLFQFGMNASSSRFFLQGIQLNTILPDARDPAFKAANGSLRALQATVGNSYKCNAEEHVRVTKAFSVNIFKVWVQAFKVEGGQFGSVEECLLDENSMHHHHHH
Method: The binding kinetics of the murine, chimer or humanized anti-LAMP1 mAbs were determined by surface plasmon resonance assay using a BIAcore 2000 (BIAcore Inc., Uppsala, N.J.). […] A mouse anti-αhuman Fc IgG1 (BIAcore #BR-1008-39) and rabbit anti-αmurine Fc IgG1 (BIAcore #BR-1008-38) (50 μg/mL in […], pH5) were immobilized on the activated chips in all flow cells. The immobilization was carried out at a flow rate of 10 μL/min up to saturation. The chip was then blocked by injection of 70 μL of ethanolamine-HCl, pH 8.5, followed by one wash with 3 M MgCl₂ for anti-αhuman Fc IgG1 and one wash with 10 mM Glycine-HCl pH 1.7 for anti-αmurine Fc IgG1. To measure the binding of anti-LAMP1 mAbs to LAMP1, antibodies were used at 1-5 μg/mL in BIAcore running buffer (HBS-EP). […] Following completion of the injection phase, dissociation was monitored in a BIAcore running buffer at the same flow rate for 600 sec. […] Individual sensorgrams were analyzed using BIAevaluation software.

T6 sequence (P13473 other isoform, or with tags, fused parts or gaps): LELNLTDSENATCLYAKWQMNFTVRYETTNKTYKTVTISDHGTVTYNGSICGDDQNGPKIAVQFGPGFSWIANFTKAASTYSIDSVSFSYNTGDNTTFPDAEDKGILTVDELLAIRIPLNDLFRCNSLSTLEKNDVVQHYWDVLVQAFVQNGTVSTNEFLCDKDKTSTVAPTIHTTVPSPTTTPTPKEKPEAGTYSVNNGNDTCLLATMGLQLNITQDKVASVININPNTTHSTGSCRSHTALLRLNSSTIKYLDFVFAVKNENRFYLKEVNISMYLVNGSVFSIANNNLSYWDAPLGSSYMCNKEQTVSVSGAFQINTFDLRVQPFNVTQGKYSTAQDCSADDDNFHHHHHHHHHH

Row | Binder | mean fluorescence (LAMP1_mseq5_ΔGYQTI) | mean fluorescence (LAMP1_mseq1_ΔGYQTI) | mean fluorescence (hLAMP1_ΔGYQTI) | mean fluorescence (LAMP1_mseq3_ΔGYQTI) | mean fluorescence (LAMP1_mseq2_ΔGYQTI) | binding result [1] | binding result (mLAMP1_hseq11_ΔGYQTI) | mean fluorescence (mLAMP1_hseq11_ΔGYQTI) | binding result (mLAMP1_ΔGYQTI) | mean fluorescence (mLAMP1_ΔGYQTI) | Kd (LAMP1::histag) [nM]
1 | B1 | 629 | 105 | 757 | 694 | 694 | no binding | no binding | 28 | no binding | 21 | 63.5
2 | B2 | 846 | 1030 | 914 | 888 | 990 | no binding | no binding | 6 | no binding | 4 | 4.8
3 | B3 | – | – | – | – | – | – | – | – | – | – | 8.2
4 | B4 | 721 | – | 749 | 674 | 803 | no binding | – | – | – | – | 4.7
